This note sets out measurements from the PETadex activity labels (doi:10.1074/jbc.m109.041285).

Substitutions are numbered along the chain they refer to.

The labels stand for the following.
B1: unnamed (protein)
chain: MSKVDLWQDATAQAELVRSGEISRTELLEATIAHVQAVNPEINAVIIPLFEKARRESELASGPFAGVPYLLKDLTVVSQGDINTSSIKGMKESGYRADHDAYFVQRMRAAGFVLLGKTNTPEMGNQVTTEPEAWGATRNPWNLGRSVGGSSGGSGAAVAAALSPVAHGNDAAGSVRIPASVCGVVGLKPTRGRISPGPLVTDSDNVAGAAHEGLFARSVRDIAALLDVVSGHRPGDTFCAPTASRPYAQGISENPGSLRVGVLTHNPVGDFALDPECAAAARGAAAALAALGHDVNDAYPEALGDRSFLKDYSTIGDVAIAREIERNGELIGRPLTEDDVEWTSWEMVKRADQVTGRAFAACVDELRYYAGKVERWWEAGWDLLILPTVTRQTPEIGELMLAKGTDLEGRQSAFISGSLQMLAFTVPFNVSGQPAISLPIGMSSDGMPIGVQIVAAYGREDLLLQVAAQLEGALPWVARRPQLLNPSRKIPAA
B2: unnamed (protein)
chain: B1 chain with G316S
B3: unnamed (protein)
chain: B1 chain with N125A, G316C
B4: unnamed (protein)
chain: B1 chain with G316C
B5: unnamed (protein)
chain: B1 chain with G316D
B6: unnamed (protein)
chain: B1 chain with G316A

Substrate in this data set: Acd (paper fig)
Particulars: 30 °C.
Usually Km stands for the substrate concentration at which the rate is half of its maximum. The term kcat denotes the number of substrate molecules converted per active site and unit of time at saturation. By kcat/Km is commonly meant the second-order rate constant that governs catalysis at low substrate concentration. Regarding B1, the Km is 3.66 mM, the kcat is 9.15 s⁻¹ and the kcat/Km was 2500 s⁻¹ M⁻¹.
The corresponding values for B2 are 1.8 mM, 4.83 s⁻¹ and 2680 s⁻¹ M⁻¹.
The matching figures for B3: 13.2 mM, 1.12 s⁻¹ and 84.8 s⁻¹ M⁻¹.
Consider B4, for which the Michaelis-Menten constant (Km) came to 3.51 mM, the turnover number (kcat) was found to be 4.97 s⁻¹ and the kcat/Km was 1420 s⁻¹ M⁻¹.
The matching figures for B5: 19 mM, 0.14 s⁻¹ and 7.37 s⁻¹ M⁻¹.
The corresponding values for B6 are 0.85 mM, 0.71 s⁻¹ and 835 s⁻¹ M⁻¹.
